Non-standard residues stand in square brackets, D forms with d. pT = C[C@@H](OP(=O)(O)O)[C@H](N)C(=O)O
Molecular target: T1, 14-3-3σ (UniProt P31947 1-248, partial β-mercaptoethanol capping of Cys38 (+76 Da adduct))
T1 construct: 14-3-3σ (14-3-3 protein sigma); The His-tag is TEV protease cleavable; Observed predominantly as a dimer by native MS; also called recombinant 14-3-3σ; receptor (R)
T1 sequence (looked up): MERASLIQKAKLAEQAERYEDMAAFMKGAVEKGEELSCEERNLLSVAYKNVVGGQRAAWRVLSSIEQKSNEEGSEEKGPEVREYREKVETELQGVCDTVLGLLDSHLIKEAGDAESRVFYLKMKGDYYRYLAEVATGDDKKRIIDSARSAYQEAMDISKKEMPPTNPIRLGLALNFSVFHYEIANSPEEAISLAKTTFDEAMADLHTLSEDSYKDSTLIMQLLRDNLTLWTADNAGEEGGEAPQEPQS
Assay: native MS; 14-3-3σ 5 μM (monomer) with 25 μM phosphopeptide, no ligand (R:P:L 1:5:0); 50 mM ammonium acetate pH 6.8, 0.25% DMSO
Details: both partners purified

stoichiometry N: 2 peptide per 14-3-3σ dimer
B1: ERα(581–595) phosphopeptide (peptide)
peptide: Ac-KYYITGEAEGFPA[pT]V-OH
notes: estrogen receptor ERα, C-terminal fragment, residues 581-595; also called C-terminal fragment of estrogen receptor ERα; source: synthetic peptide, bought: Synpeptide Ltd (>95% purity)
